IC50 data for 16 sequences are collected here from the Immune Epitope Database (IEDB).

Targets include HLA-B*35:01; HLA-B*53:01; HLA-A*02:01; HLA-B*57:01; HLA-B*44:03; HLA-B*07:02.
What all share (assay): IEDB peptide-MHC binding, purified MHC/competitive/radioactivity; ≥ and ≤ were set here for values at or beyond the usual limits of such assays
Conditions in all cases: source organism: Bordetella pertussis

Take DAKHDLTVT: in the assay with HLA-B*35:01, the IC50 was found to be 69.9 µM. TPLGSLFAI: the IC50 amounted to 1.34 µM with HLA-B*35:01 and 8.19 µM in the assay with HLA-B*53:01. Regarding QSIVEAPEL, in the assay with HLA-A*02:01, the IC50 was 46 µM. As for KAGTIAAPW, the half-maximal inhibitory concentration (IC50) in the assay with HLA-B*57:01 was 0.297 µM. For FALYDGTYL, in the assay with HLA-B*35:01, the IC50 was 20.9 µM.

As for YEYSKGPKL, the IC50 with HLA-B*44:03 stood at 47.7 µM. With LAAVLVNPH, in the assay with HLA-B*35:01, the 50% inhibitory concentration (IC50) was determined as 69.9 µM. Regarding GLDVQQGTV, in the assay with HLA-A*02:01, the IC50 came to 60 µM. For the sequence AGLAGPSAV, the concentration for half-maximal inhibition (IC50) with HLA-A*02:01 was at least 78.1 µM. Regarding DENGKPQTY, the half-inhibitory concentration (IC50) with HLA-B*44:03 is 11.5 µM. Consider TGDGGGHTD, for which, in the assay with HLA-B*53:01, the IC50 was determined as 69.9 µM. On to YEYIWGLYP, for which, in the assay with HLA-B*44:03, the half-maximal inhibitory concentration (IC50) came out at 8.39 µM. Regarding YATNPQTQL, in the assay with HLA-B*07:02, the IC50 amounted to 69.6 µM. On to AESNALSKR, for which the concentration for half-maximal inhibition (IC50) in the assay with HLA-B*44:03 is 44.2 µM. Take FAISAYALK: in the assay with HLA-B*53:01, the IC50 stood at 4.42 µM. Consider KEDVDAAQI, for which the IC50 in the assay with HLA-B*44:03 amounted to 34.2 µM.

Broadly, the IC50 is the concentration needed to halve the response being measured.
